From doi:10.1101/2020.11.19.389874

Experiments:
[1] = biological target: Urn8RA (Urinate Receptor isoform RA) expressed in CHO/G16 cells (Tribolium castaneum)
[2] = biological target: Urn8RB (Urinate Receptor isoform RB) expressed in CHO/G16 cells (Tribolium castaneum)

| bioluminescence response of CHO/G16 cells expressing Urn8RA, dose-response, EC50 [1] [nM] | bioluminescence response of CHO/G16 cells expressing Urn8RB, dose-response, EC50 [2] [nM] | Substance |
| --- | --- | --- |
| 380 | 340 | Tribolium castaneum diuretic hormone 47 (DH47), unlabeled (peptide) |
| 160 | 450 | Tribolium castaneum diuretic hormone 37 (DH37), unlabeled (peptide) |
